This note sets out measurements from patent US20200147235A1 (AbbVie / Abbott, published 2020).

T1: Human CD98 ECD with C-terminal His-tag (human, UniProt P08195 105-529)
T1 construct: also called huCD98 ECD; recombinant human CD98 extracellular domain
T1 sequence: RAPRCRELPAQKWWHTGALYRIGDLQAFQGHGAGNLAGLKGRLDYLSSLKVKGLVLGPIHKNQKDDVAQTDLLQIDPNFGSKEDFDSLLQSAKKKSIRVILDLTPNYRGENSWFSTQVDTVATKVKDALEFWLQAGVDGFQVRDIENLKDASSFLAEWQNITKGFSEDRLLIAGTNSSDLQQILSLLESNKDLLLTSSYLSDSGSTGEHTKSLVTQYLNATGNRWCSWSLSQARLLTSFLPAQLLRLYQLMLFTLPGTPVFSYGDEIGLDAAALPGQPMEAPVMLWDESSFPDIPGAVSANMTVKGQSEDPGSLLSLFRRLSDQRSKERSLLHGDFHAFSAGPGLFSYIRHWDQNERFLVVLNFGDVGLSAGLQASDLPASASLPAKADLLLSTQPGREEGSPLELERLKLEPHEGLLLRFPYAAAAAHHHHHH

T2: Cynomolgus monkey CD98 ECD with C-terminal His-tag (cynomolgus monkey, UniProt P08195 105-529 (human entry))
T2 construct: also called cyCD98 ECD; recombinant cynomolgus monkey CD98 extracellular domain
T2 chain: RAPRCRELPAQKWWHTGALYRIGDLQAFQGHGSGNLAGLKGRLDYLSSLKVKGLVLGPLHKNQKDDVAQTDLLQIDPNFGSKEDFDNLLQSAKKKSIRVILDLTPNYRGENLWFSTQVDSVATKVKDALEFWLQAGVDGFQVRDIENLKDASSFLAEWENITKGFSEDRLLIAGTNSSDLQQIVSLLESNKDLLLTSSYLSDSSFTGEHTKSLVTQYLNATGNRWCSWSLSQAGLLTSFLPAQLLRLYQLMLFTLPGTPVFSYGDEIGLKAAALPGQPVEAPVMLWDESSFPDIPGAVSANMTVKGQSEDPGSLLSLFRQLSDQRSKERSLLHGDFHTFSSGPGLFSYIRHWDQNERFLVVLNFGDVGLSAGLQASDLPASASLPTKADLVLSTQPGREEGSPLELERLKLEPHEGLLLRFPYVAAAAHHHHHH

T3: Human CD98 expressed on stably transfected CHO-K1 cells (human)
T3 construct: also called huCD98; CD98 heavy chain
T3 chain: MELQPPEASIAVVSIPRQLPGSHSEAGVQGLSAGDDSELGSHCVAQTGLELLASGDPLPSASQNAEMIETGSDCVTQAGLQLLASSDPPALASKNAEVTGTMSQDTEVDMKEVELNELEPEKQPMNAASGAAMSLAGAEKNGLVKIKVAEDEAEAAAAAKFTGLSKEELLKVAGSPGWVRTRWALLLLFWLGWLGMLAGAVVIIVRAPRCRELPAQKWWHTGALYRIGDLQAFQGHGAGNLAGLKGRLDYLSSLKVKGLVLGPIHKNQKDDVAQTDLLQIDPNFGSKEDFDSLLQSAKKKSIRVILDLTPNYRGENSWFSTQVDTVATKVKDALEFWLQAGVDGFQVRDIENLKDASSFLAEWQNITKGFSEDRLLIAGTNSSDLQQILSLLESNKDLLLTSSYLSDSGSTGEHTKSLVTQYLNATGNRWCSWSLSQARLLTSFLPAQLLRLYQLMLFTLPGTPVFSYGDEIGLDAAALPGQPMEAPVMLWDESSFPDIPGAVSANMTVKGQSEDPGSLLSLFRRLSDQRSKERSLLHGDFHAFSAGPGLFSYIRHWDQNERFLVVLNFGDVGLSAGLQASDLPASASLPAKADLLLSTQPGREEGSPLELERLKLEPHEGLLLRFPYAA

B1: Recombinant anti-CD98 chimeric antibody chAb10 (antibody, human IgG1, V domains shown)
VH: EVQLVESGGGLVQPGRSLKLSCAASGFTFSDYAMAWVRQAPKKSLEWVATIIYDGRGTYCRDSVKGRFTISRDNAKSTLYLQMDSLRSEDTATYYCARQGDGTYHYWGYFDYWGQGVMVTVSS
VL: DIVMTQSPSSLAVSAGETVTINCKSSQSLLSSGNQKNYLAWYQQKPGQSPKLLIYWASTRQSGVPDRFIGSGSGTDFTLTISSVQAEDLAIYYCQQYYDTPYTFGAGTKVDLK
B2: Recombinant anti-CD98 chimeric antibody chAb11 (antibody, human IgG1, V domains shown)
VH: B1 VH with S44G, T50G, C60Y, H105Y
VL: B1 VL with K24R, V110L, D111E
B3: Recombinant anti-CD98 chimeric antibody chAb15 (antibody, human IgG1, V domains shown)
VH: B1 VH with A33T, S44G, C60Y, G100S, H105Y
VL: B1 VL with S31F, S82R, T100S, V110L, D111E
B4: Recombinant anti-CD98 chimeric antibody chAb12 (antibody, human IgG1, V domains shown)
VH: B1 VH with S44G, T50S, C60Y, H105Y, Y109S
VL: B1 VL with Y93H, V110L, D111E
B5: Recombinant anti-CD98 chimeric antibody chAb14 (antibody, human IgG1, V domains shown)
VH: EVKLQQSGDELVRPGASVKISCKASGYTFTSYSMHWVKERPGQGLEWIGAIFPIIGTTEYNQKFKGKATLTADKSSNTANMELSRLTSEDSAVYYCARVYLSYFDYWGQGVMVTVSS
VL: DIQMTQSPSFLSASVGDRVTINCKASQNINKYLDWYQRKHGEAPKLLIYNTNNLQTGIPSRFSGSGSGTDYTLTISSLQPEDVATYFCLQHSSRYTFGAGTKLELK
B6: Anti-CD98 murine hybridoma antibody Ab1 (antibody, V domains shown)
VH: EVKLVESGGGLVQPGGSLRLSCATSGFTFTDYYMSWVRQPPGKALEWLGFIRNPANVYTTEYSASVKGRFTISRDNSQSILYLQMNTLRAEDSATYYCARASYGNSEGWFAYWGQGTLVTVSA
VL: DIVMSQSPSSLAVSVGEKVTMSCKSSQNLLYNNNQKNYLAWYQQKPGQSPKLLIYWASTRESGVPDRFTGSGSGTDFTLTISSVKAEDLAVYYCQQYYSYPRTFGGGTKLEIK

Numbering of substitutions follows the chain as printed. Where only a bound is given, the exact number is not on record here.

The target in one experiment is T1, Human CD98 ECD with C-terminal His-tag. Description: SPR Biacore, anti-Fc capture of mAb, CD98 ECD analyte. The procedure:
(§1) The binding kinetics of these purified mouse and rat monoclonal anti-CD98 antibodies for purified recombinant CD98 protein (extracellular domain. ECD) were determined by surface plasmon resonance-based measurements made on Biacore T100/T200 instruments (GE Healthcare, Piscataway, N.J.) at 25° C. using an anti-Fc capture assay approach. Binding kinetic measurements were made in the assay buffer HBS-EP+: 10 mM Hepes, pH 7.4, 150 mM NaCl, 3 mM EDTA, 0.05% Tween 20). For example, approximately 8000 RU of anti-Fc (species specific) polyclonal antibody (Thermo Fisher Scientific Inc. Rockford, Ill.) diluted in 10 mM sodium acetate (pH 4.5) was directly immobilized across a CM5 research grade biosensor chip using a standard amine coupling kit according to manufacturer's instructions and procedures at 25 μg/ml. Unreacted moieties on the biosensor surface were blocked with ethanolamine. The test antibody to be captured as a ligand was diluted in running buffer to ˜0.5 μg/mL and injected over anti-Fc surface at a flow rate of 10 μL/min, CD98 binding and dissociation were observed under a continuous flow rate of 80 μL/min. Human and cynomolgus monkey CD98 ECDs, both with a C-terminal His-tag, are used for this study (Table 3). After each cycle the anti-Fc capture surface was regenerated using 10 mM Glycine-HCl, pH 1.5. During the assay, all measurements were referenced against the capture surface alone (i.e., with no captured test antibody) and buffer-only injections (no antigen) were used for double referencing. For kinetic analysis, rate equations derived from the 1:1 Langmuir binding model were fitted simultaneously, globally and with mass transfer term included to multiple referenced antigen binding curves using Biacore T100T200 Evaluation software.
(§2) Briefly, binding kinetics of anti-CD98 chimera mAbs for human and cynomolgus CD98 ECDs were determined by surface plasmon resonance-based measurements as described in Example 4.
Background: In SPR one partner is held on a chip, and binding of the other changes the refractive index at the surface.
One may read the Kd as the equilibrium constant for the complex coming apart. What is called koff is a measure of how fast the partners let go of each other. As usually defined, the kon is the rate constant with which the complex forms. Molecule B1 registered an equilibrium dissociation constant (Kd) of 3.3 nM, a koff of 0.00033 s⁻¹ and a kon of 100000 M⁻¹ s⁻¹.

B2 showed a Kd of 28 nM, a koff of 0.0013 s⁻¹ and a kon of 45000 M⁻¹ s⁻¹.

B3 came in with a Kd of 1.1 nM, a koff of 4.6e-05 s⁻¹ and a kon of 43000 M⁻¹ s⁻¹.

In turn, B4 registered a Kd of 1.2 nM, a koff of 6.3e-05 s⁻¹ and a kon of 54000 M⁻¹ s⁻¹.

For B5, the Kd turned out to be 3.9 nM, the koff stood at 8.4e-05 s⁻¹ and the kon was found to be 22000 M⁻¹ s⁻¹.

In the next experiment the target is T2, Cynomolgus monkey CD98 ECD with …. Described as above. On the procedure:
as §1, §2
With B1, the Kd worked out at 11 nM, the koff was 0.00064 s⁻¹ and the kon came out at 59000 M⁻¹ s⁻¹.

In the case of B2, the Kd came out at 110 nM, the off-rate constant (koff) came to 0.002 s⁻¹ and the association rate constant (kon) came to 18000 M⁻¹ s⁻¹.

As to B3, the Kd was determined as 3.7 nM, the koff is 7.4e-05 s⁻¹ and the kon worked out at 20000 M⁻¹ s⁻¹.

As to B4, binding was put at a Kd of 3.8 nM, the koff was 9.3e-05 s⁻¹ and the kon was determined as 24000 M⁻¹ s⁻¹.

Molecule B5 registered a Kd of 110 nM, a koff of 0.0014 s⁻¹ and a kon of 12000 M⁻¹ s⁻¹.

Another experiment concerns the target T1, Human CD98 ECD with C-terminal His-tag. The description is as above. This is another data set of the same source. On the procedure: as §1
B6 came in with a Kd of at most 0.059 nM and an on-rate (kon) of 85000 M⁻¹ s⁻¹.

The target of the next experiment is T2, Cynomolgus monkey CD98 ECD with …. The experiment is described as above. This is another data set of the same source. The procedure:
as §1
As for B6, the Kd was at most 0.12 nM and the kon stood at 43000 M⁻¹ s⁻¹.

The next experiment concerns the target T4, Cynomolgus monkey CD98 expressed on stably transfected 3T12 cells (cynomolgus monkey).
T4 construct: whole, on cells; also called cyCD98
Nature of the experiment: flow cytometry, 3T12 cells expressing cynomolgus CD98. The procedure: (§3) Briefly, binding kinetics of anti-CD98 chimera mAbs for human and cynomolgus CD98 ECDs were determined by surface plasmon resonance-based measurements as described in Example 4. Table 10 reported the association and dissociation rate constants for CD98 binding, kₐ (M⁻¹s⁻¹) and kd (s⁻¹), and the equilibrium dissociation constant KD (M) of the interaction between antibodies and the target antigen. Binding of anti-CD98 chimera mAbs for CD98 on cell surface was evaluated by flow cytometry against CHO-K1 cell line stably transfected to express human CD98 and 3T12 cell line stably transfected to express cynomolgus monkey CD98.
A general note: A flow cytometer gives signals particle by particle.
Usually EC50 stands for the concentration that produces a half-maximal response. In turn, B1 showed an EC50 of 10.8 nM.

For B2, the EC50 is 16.9 nM.

In turn, B3 gave an EC50 of 20.3 nM.

With B4, the midpoint of the response, the EC50, lay at 14.9 nM.

B5 yielded an EC50 of 18 nM.

The target of the next experiment is T3, Human CD98 expressed on stably …. Description: flow cytometry, CHO-K1 cells expressing human CD98. On the procedure: as §3
In the case of B1, the EC50 was found to be 6.45 nM.

Take B2: the 50% effective concentration (EC50) came to 4.57 nM.

B3 had an EC50 of 6.63 nM.

B4 had an EC50 of 2.89 nM.

B5 had an EC50 of 3.75 nM.

The target in another experiment is T1, Human CD98 ECD with C-terminal His-tag. Description: SPR Biacore, anti-Fc capture of mAb, CD98 ECD analyte; kd set to assay limit. The procedure: as §1, with “During the assay, all measurements were referenced against the capture surface alone (i.e., with no captured test antibody) and buffer-only injections (no antigen) were used for double referencing. For kinetic analysis, rate equations derived from the 1:1 Langmuir binding model were fitted simultaneously, globally and with mass transfer term included to multiple referenced antigen binding curves using Biacore T100T200 Evaluation software.” left out
The molecule B6 showed a koff of at most 5e-06 s⁻¹.

For a further experiment, the target named is T2, Cynomolgus monkey CD98 ECD with …. The description is as above. The procedure:
as §1, with “During the assay, all measurements were referenced against the capture surface alone (i.e., with no captured test antibody) and buffer-only injections (no antigen) were used for double referencing. For kinetic analysis, rate equations derived from the 1:1 Langmuir binding model were fitted simultaneously, globally and with mass transfer term included to multiple referenced antigen binding curves using Biacore T100T200 Evaluation software.” left out
In turn, B6 displayed a koff of at most 5e-06 s⁻¹.
